Reference: publication PMC3912326
Like-named read-outs stand apart in the source and are kept apart here.

How the values were obtained:
Assay in all cases: fluorescence anisotropy
transferrin (Tf) = transferrin (Tf) (UniProt P02787 20-698)
[1] = target: T1, mouse transferrin receptor (mTfR) (Mus musculus, UniProt Q62351 89-763)
[2] = target: human transferrin receptor (hTfR) (Homo sapiens, UniProt P02786 89-760)
[3] = target: T1, mouse transferrin receptor (mTfR); remark: listed apart in the source
[4] = target: T1, mouse transferrin receptor (mTfR); remark: listed apart in the source

T1 sequence (Q62351 89-763): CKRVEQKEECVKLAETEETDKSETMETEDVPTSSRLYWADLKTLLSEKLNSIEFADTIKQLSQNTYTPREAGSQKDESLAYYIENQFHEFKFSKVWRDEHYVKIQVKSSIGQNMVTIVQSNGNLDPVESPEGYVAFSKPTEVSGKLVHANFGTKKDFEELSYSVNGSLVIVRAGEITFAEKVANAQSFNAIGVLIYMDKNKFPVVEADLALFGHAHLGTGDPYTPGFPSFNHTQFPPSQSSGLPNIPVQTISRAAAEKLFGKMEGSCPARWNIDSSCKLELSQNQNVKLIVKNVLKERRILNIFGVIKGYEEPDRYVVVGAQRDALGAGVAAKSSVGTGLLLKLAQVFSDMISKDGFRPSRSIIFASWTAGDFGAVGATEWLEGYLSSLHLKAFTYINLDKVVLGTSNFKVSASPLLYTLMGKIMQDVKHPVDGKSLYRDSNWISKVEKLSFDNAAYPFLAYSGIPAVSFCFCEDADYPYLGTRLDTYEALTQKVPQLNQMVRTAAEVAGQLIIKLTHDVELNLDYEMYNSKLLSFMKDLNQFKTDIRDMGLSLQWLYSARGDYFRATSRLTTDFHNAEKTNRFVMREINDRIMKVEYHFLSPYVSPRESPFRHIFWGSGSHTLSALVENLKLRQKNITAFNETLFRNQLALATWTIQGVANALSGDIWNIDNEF
Sequence of human transferrin receptor (hTfR) (P02786 89-760): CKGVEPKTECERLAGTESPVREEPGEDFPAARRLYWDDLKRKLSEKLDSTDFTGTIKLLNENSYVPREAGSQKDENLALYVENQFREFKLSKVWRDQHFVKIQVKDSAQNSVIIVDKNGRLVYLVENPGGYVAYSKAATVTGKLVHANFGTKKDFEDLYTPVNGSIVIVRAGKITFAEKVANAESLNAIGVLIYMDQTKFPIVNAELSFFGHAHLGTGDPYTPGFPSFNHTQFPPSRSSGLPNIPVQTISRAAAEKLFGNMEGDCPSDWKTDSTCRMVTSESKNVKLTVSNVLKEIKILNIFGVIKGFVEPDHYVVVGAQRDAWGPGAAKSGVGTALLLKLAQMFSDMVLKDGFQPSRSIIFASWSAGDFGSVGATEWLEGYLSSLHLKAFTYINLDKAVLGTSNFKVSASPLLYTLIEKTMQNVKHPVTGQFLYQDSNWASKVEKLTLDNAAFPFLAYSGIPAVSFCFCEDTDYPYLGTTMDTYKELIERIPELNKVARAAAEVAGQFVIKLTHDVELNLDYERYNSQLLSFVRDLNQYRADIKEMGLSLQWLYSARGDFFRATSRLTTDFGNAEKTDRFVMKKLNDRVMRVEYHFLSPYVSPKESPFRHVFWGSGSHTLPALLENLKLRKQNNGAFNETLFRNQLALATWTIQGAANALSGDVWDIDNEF
Sequence of transferrin (Tf) (P02787 20-698): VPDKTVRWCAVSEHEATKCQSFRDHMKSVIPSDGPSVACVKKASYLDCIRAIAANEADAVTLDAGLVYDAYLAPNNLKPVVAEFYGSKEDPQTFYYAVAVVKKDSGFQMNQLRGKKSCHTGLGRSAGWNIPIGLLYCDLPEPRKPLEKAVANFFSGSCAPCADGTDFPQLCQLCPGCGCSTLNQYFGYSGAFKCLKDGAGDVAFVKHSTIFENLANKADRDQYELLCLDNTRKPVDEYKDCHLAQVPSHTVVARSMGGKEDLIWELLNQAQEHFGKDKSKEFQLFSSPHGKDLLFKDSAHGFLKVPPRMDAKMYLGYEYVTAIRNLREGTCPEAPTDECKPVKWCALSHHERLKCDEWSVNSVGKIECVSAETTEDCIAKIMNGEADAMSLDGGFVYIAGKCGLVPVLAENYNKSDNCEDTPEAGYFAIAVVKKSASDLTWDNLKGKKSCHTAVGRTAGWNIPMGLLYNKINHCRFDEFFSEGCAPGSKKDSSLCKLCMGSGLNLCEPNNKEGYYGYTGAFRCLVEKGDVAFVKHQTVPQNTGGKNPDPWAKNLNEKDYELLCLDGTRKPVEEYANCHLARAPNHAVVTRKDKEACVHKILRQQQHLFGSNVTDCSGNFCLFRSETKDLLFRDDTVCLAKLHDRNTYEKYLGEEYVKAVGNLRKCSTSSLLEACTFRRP

B1: GS24 (equilibrium mixture A-1F:A-2F 20:80) (structured_DNA)
DNA: GCGTGTGCACACGGTCACTTAGTATCGCTACGTTCTTTGGTTCCGTTCGG
modifications: 5' amino C6 linker
Transferrin (Tf)
  binding result: no binding
[1]
  Kd: 250 ± 40 nM
[2]
  Kd: 1000 ± 250 nM

B2: GS24 fold A-2F (purified active fold) (structured_DNA)
DNA: B1 DNA
modifications: 5' amino C6 linker
[3]
  Kd: 130 ± 30 nM

B3: GS24min (structured_DNA)
DNA: CACTTAGTATCGCTACGTTCTTTGGTTCCGTTCGG
modifications: 5' amino C6 linker
[4]
  Kd: 1200 ± 390 nM
